Measured values taken from publication PMC4519979 (Biochemistry, 2015).

Biological target: the molecule itself
Experiment: SEC; HiPrep Superdex 200 16/600 after Ni-NTA; 0.03% DDM, 50 mM sodium phosphate pH 7.5, 150 mM NaCl; ratio of heptamers to monomers

Protein | binding result
MscS YFF G90W (complex, E. coli) MEDLNVVDSINGAGSYLVANQALLLSYAVNIVAALAIIIVGLIIARMISNAVNRLMISRKIDATVADFLSALVRYGIIAFTLIAALGRVWVQTASVIAVLGAAGLAVGLALQGSLSNLAAGVLLVMFRPFRAGEYVDLGGVAGTVLSVQIFSTTMRTADGKIIVIPNGKIIAGNIINFSREPVRRNEFIIGVAYDSDIDQVKQILTNIIQSEDRILKDREMTVRLNELGASSINFVVRVFSNSGDLQNVYFDVLERIKREFDAAGISFPYPQMDVNFKRVKEDKAA | binds
MscS YFF I97W (complex, E. coli, UniProt P0C0S1 1-286, looked up) MEDLNVVDSINGAGSYLVANQALLLSYAVNIVAALAIIIVGLIIARMISNAVNRLMISRKIDATVADFLSALVRYGIIAFTLIAALGRVGVQTASVWAVLGAAGLAVGLALQGSLSNLAAGVLLVMFRPFRAGEYVDLGGVAGTVLSVQIFSTTMRTADGKIIVIPNGKIIAGNIINFSREPVRRNEFIIGVAYDSDIDQVKQILTNIIQSEDRILKDREMTVRLNELGASSINFVVRVFSNSGDLQNVYFDVLERIKREFDAAGISFPYPQMDVNFKRVKEDKAA | binds
MscS YFF R88W (complex, E. coli, UniProt P0C0S1 1-286, looked up) MEDLNVVDSINGAGSYLVANQALLLSYAVNIVAALAIIIVGLIIARMISNAVNRLMISRKIDATVADFLSALVRYGIIAFTLIAALGWVGVQTASVIAVLGAAGLAVGLALQGSLSNLAAGVLLVMFRPFRAGEYVDLGGVAGTVLSVQIFSTTMRTADGKIIVIPNGKIIAGNIINFSREPVRRNEFIIGVAYDSDIDQVKQILTNIIQSEDRILKDREMTVRLNELGASSINFVVRVFSNSGDLQNVYFDVLERIKREFDAAGISFPYPQMDVNFKRVKEDKAA | binds
MscS YFF A98W (complex, E. coli, UniProt P0C0S1 1-286, looked up) MEDLNVVDSINGAGSYLVANQALLLSYAVNIVAALAIIIVGLIIARMISNAVNRLMISRKIDATVADFLSALVRYGIIAFTLIAALGRVGVQTASVIWVLGAAGLAVGLALQGSLSNLAAGVLLVMFRPFRAGEYVDLGGVAGTVLSVQIFSTTMRTADGKIIVIPNGKIIAGNIINFSREPVRRNEFIIGVAYDSDIDQVKQILTNIIQSEDRILKDREMTVRLNELGASSINFVVRVFSNSGDLQNVYFDVLERIKREFDAAGISFPYPQMDVNFKRVKEDKAA | binds

Biological target: the molecule itself
Experiment: native gel or EMSA; BN-PAGE with Western blot for the His tag; membranes (30 ug protein) solubilised in PBS pH 7.4 with 1% DDM, 2.8 M urea, 1 mM EDTA, 30 min, room temperature; heptamer to monomers

Protein | stoichiometry N
wild-type (WT) MscS (complex, E. coli) MEDLNVVDSINGAGSWLVANQALLLSYAVNIVAALAIIIVGLIIARMISNAVNRLMISRKIDATVADFLSALVRYGIIAFTLIAALGRVGVQTASVIAVLGAAGLAVGLALQGSLSNLAAGVLLVMFRPFRAGEYVDLGGVAGTVLSVQIFSTTMRTADGKIIVIPNGKIIAGNIINFSREPVRRNEFIIGVAYDSDIDQVKQILTNIIQSEDRILKDREMTVRLNELGASSINFVVRVWSNSGDLQNVYWDVLERIKREFDAAGISFPYPQMDVNFKRVKEDKAA | 7
MscS YFF (complex, E. coli) MEDLNVVDSINGAGSYLVANQALLLSYAVNIVAALAIIIVGLIIARMISNAVNRLMISRKIDATVADFLSALVRYGIIAFTLIAALGRVGVQTASVIAVLGAAGLAVGLALQGSLSNLAAGVLLVMFRPFRAGEYVDLGGVAGTVLSVQIFSTTMRTADGKIIVIPNGKIIAGNIINFSREPVRRNEFIIGVAYDSDIDQVKQILTNIIQSEDRILKDREMTVRLNELGASSINFVVRVFSNSGDLQNVYFDVLERIKREFDAAGISFPYPQMDVNFKRVKEDKAA | 7

Biological target: the molecule itself
Experiment: FRET or BRET; homo-FRET between Trp residues of different subunits read by steady-state fluorescence anisotropy; heptameric and dissociated fractions from SEC, DDM-solubilised; excitation 295 nm, emission 340-360 nm

Protein | binding result
MscS YFF L109W (complex, E. coli, UniProt P0C0S1 1-286, looked up) MEDLNVVDSINGAGSYLVANQALLLSYAVNIVAALAIIIVGLIIARMISNAVNRLMISRKIDATVADFLSALVRYGIIAFTLIAALGRVGVQTASVIAVLGAAGLAVGWALQGSLSNLAAGVLLVMFRPFRAGEYVDLGGVAGTVLSVQIFSTTMRTADGKIIVIPNGKIIAGNIINFSREPVRRNEFIIGVAYDSDIDQVKQILTNIIQSEDRILKDREMTVRLNELGASSINFVVRVFSNSGDLQNVYFDVLERIKREFDAAGISFPYPQMDVNFKRVKEDKAA | binds

Biological target: the molecule itself
Experiment: native gel or EMSA; BN-PAGE after the fluorescence measurements of purified MscS reconstituted into DOPC bilayers (molar ratio 1:100; 40 mM HEPES pH 7.2, 100 mM KCl, 1 mM EGTA)

Protein | stoichiometry N
MscS YFF G101W (complex, E. coli, UniProt P0C0S1 1-286, looked up) MEDLNVVDSINGAGSYLVANQALLLSYAVNIVAALAIIIVGLIIARMISNAVNRLMISRKIDATVADFLSALVRYGIIAFTLIAALGRVGVQTASVIAVLWAAGLAVGLALQGSLSNLAAGVLLVMFRPFRAGEYVDLGGVAGTVLSVQIFSTTMRTADGKIIVIPNGKIIAGNIINFSREPVRRNEFIIGVAYDSDIDQVKQILTNIIQSEDRILKDREMTVRLNELGASSINFVVRVFSNSGDLQNVYFDVLERIKREFDAAGISFPYPQMDVNFKRVKEDKAA | 7
MscS YFF G113W (complex, E. coli, UniProt P0C0S1 1-286, looked up) MEDLNVVDSINGAGSYLVANQALLLSYAVNIVAALAIIIVGLIIARMISNAVNRLMISRKIDATVADFLSALVRYGIIAFTLIAALGRVGVQTASVIAVLGAAGLAVGLALQWSLSNLAAGVLLVMFRPFRAGEYVDLGGVAGTVLSVQIFSTTMRTADGKIIVIPNGKIIAGNIINFSREPVRRNEFIIGVAYDSDIDQVKQILTNIIQSEDRILKDREMTVRLNELGASSINFVVRVFSNSGDLQNVYFDVLERIKREFDAAGISFPYPQMDVNFKRVKEDKAA | 7
MscS YFF A94W (complex, E. coli) MEDLNVVDSINGAGSYLVANQALLLSYAVNIVAALAIIIVGLIIARMISNAVNRLMISRKIDATVADFLSALVRYGIIAFTLIAALGRVGVQTWSVIAVLGAAGLAVGLALQGSLSNLAAGVLLVMFRPFRAGEYVDLGGVAGTVLSVQIFSTTMRTADGKIIVIPNGKIIAGNIINFSREPVRRNEFIIGVAYDSDIDQVKQILTNIIQSEDRILKDREMTVRLNELGASSINFVVRVFSNSGDLQNVYFDVLERIKREFDAAGISFPYPQMDVNFKRVKEDKAA | 7
MscS YFF A103W (complex, E. coli, UniProt P0C0S1 1-286, looked up) MEDLNVVDSINGAGSYLVANQALLLSYAVNIVAALAIIIVGLIIARMISNAVNRLMISRKIDATVADFLSALVRYGIIAFTLIAALGRVGVQTASVIAVLGAWGLAVGLALQGSLSNLAAGVLLVMFRPFRAGEYVDLGGVAGTVLSVQIFSTTMRTADGKIIVIPNGKIIAGNIINFSREPVRRNEFIIGVAYDSDIDQVKQILTNIIQSEDRILKDREMTVRLNELGASSINFVVRVFSNSGDLQNVYFDVLERIKREFDAAGISFPYPQMDVNFKRVKEDKAA | 7
MscS YFF L105W (complex, E. coli, UniProt P0C0S1 1-286, looked up) MEDLNVVDSINGAGSYLVANQALLLSYAVNIVAALAIIIVGLIIARMISNAVNRLMISRKIDATVADFLSALVRYGIIAFTLIAALGRVGVQTASVIAVLGAAGWAVGLALQGSLSNLAAGVLLVMFRPFRAGEYVDLGGVAGTVLSVQIFSTTMRTADGKIIVIPNGKIIAGNIINFSREPVRRNEFIIGVAYDSDIDQVKQILTNIIQSEDRILKDREMTVRLNELGASSINFVVRVFSNSGDLQNVYFDVLERIKREFDAAGISFPYPQMDVNFKRVKEDKAA | 7
MscS YFF T93W (complex, E. coli) MEDLNVVDSINGAGSYLVANQALLLSYAVNIVAALAIIIVGLIIARMISNAVNRLMISRKIDATVADFLSALVRYGIIAFTLIAALGRVGVQWASVIAVLGAAGLAVGLALQGSLSNLAAGVLLVMFRPFRAGEYVDLGGVAGTVLSVQIFSTTMRTADGKIIVIPNGKIIAGNIINFSREPVRRNEFIIGVAYDSDIDQVKQILTNIIQSEDRILKDREMTVRLNELGASSINFVVRVFSNSGDLQNVYFDVLERIKREFDAAGISFPYPQMDVNFKRVKEDKAA | 7
